Tested on: Arabidopsis thaliana T1 plants
Experiment: Topramezone tolerance of transgenic Arabidopsis thaliana T1 plants (pesticide damage grade by bleached leaf area, score, resistance evaluation)
Assay type: in vivo
Parameters: score: scale not given here
Settings: for Resistance evaluation: HPPD F372G mutants, Table 6; for Resistance Grade / score / Grade 0 / Grade 1 / Grade 2 / Grade 3: HPPD from Avena sativa source; for Grade 0 / Grade 1 / Grade 2 / Grade 3: number of plants
How it was run: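 Eighteen days after sowing, wild-type and HPPD-transgenic T1 Arabidopsis receive a topramezone spray at 1×, 2× or 4× field rate (25–100 g ai/ha) or water. Seven days later each plant is graded by its proportion of bleached leaf area.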

B1: SbHPPDm-F372G: Sorghum bicolor HPPD mutant F372G, SEQ ID NO: 309 (protein)
chain: MPPTPTTAAATGAAVAAASAEQAAFRLVGHRNFVRVNPRSDRFHTLAFHHVELWCADAASAAGRFSFGLGAPLAARSDLSTGNTAHASLLLRSGALAFLFTAPYAHGADAATASLPSFSAAEARRFAADHGLAVRAVALRVADAEDAFRASVAAGARPAFEPVELGLGFRLAEVELYGDVVLRYVSYPDDADASFLPGFVGVTSPGAADYGLRRFDHIVGNVPELAPAAAYFAGFTGFHEFAEFTAEDVGTTESGLNSMVLANNAENVLLPLNEPVHGTKRRSQIQTYLDHHGGPGVQHMALASDDVLRTLREMQARSAMGGFEFMAPPAPEYYDGVRRRAGDVLTEAQIKECQELGVLVDRDDQGVLLQIGTKPVGDRPTLFLEIIQRIGCMEKDEKGQEYQKGGCGGFGKGNFSQLFKSIEDYEKSLEAKQAAAAQGS
modifications: SbHPPDm-F372G Amino Acid Sequence
Resistance evaluation (topramezone 25 g ai/ha (1x)): Moderately resistant
Resistance evaluation (topramezone 100 g ai/ha (4x)): Non-resistant

B2: BdHPPDm-F372G: Brachypodium distachyon HPPD mutant F372G, SEQ ID NO: 303 (protein)
chain: MPPPATTAAPAAAAVTPEHARPPRRVARVNPRSDRFSALSFHHVELWCADAASAAGRFSFALGAPPAARSDLSTGNSAHASILLRSGSLAFLFTAPYAPSPASDSAASIPSFSASAARQFTADHGGLAVRAVALRVSSASDAFHASVSAGARPSFPPADLGQGFALAEVELYGDVVLRFISHPDENTEIPFLPGFESVSNPGASTYGLTRFDHVVGNVPSLAPVAAYIAGFTGFHEFAEFTAEDVGTADSGLNSVVLANNSERVLLPLNEPVHGTKRRSQIQTYLDHHGGPGVQHIALASDDVLRTLREMRARSAMGGFEFLAPPPPNYYDGVRRRAGDVLSEAQIKECQELGVLVDRDDQGVLLQIGTKPVGDRPTLFLEMIQRIGCMEKDEIGQEQQKGGCGGFGKGNFSELFRSIEEYEKSLEAKQSAVVQES
modifications: BdHPPDm-F372G Amino Acid Sequence
Resistance evaluation (topramezone 25 g ai/ha (1x)): Highly resistant
Resistance evaluation (topramezone 100 g ai/ha (4x)): Moderately resistant

B3: SiHPPDm-F372G: Setaria italica HPPD mutant F372G, SEQ ID NO: 307 (protein)
chain: MPPTPTPAAAAPGAAAAPAAGDQAAFRLVGHRGFVRVNPRSDRFHTLSFHHVELWCADATSAAGRFSFGLGAPLAARSDLSTGNSAHASLLLRSGSLAFLFTAPYAHGVDAATASLPSFSAPAARSFAADHGLAVRAIGLRVADAEDAFRASVAAGARPAFKPVELGLGFRLAEVELYGDVVLRYVSYPDAEDAPFLPGFENVNNPGALNYGLRRFDHIVGNVPELAPVAAYVAGFTGFHEFAEFTAEDVGTAESGLNSMVLANNSETVLIPLNEPVHGTKRRSQIQTFLDHNGGPGVQHIALASDDVLRTLREMQARSAMGGFEFMAAPPPDYYEGVRRRAGDVLSEAQIKECQELGVLVDRDDQGVLLQIGTKPVGDRQTLFLEIIQRIGCMEKDEQGQEYQKGGCGGFGKGNFSQLFKSIEDYEKSLESKQAAAVQGS
modifications: SiHPPDm-F372G Amino Acid Sequence
Resistance evaluation (topramezone 25 g ai/ha (1x)): Moderately resistant
Resistance evaluation (topramezone 100 g ai/ha (4x)): Poorly resistant

B4: HvHPPDm-F372G: Hordeum vulgare HPPD mutant F372G, SEQ ID NO: 305 (protein)
chain: MPPTPTTPAATGAAAAVTPEHARPHRMVRFNPRSDRFHTLSFHHVEFWCADAASAAGRFAFALGAPLAARSDLSTGNSAHASQLLRSGSLAFLFTAPYANGCDAATASLPSFSADAARRFSADHGIAVRSVALRVADAAEAFRASRRRGARPAFAPVDLGRGFAFAEVELYGDVVLRFVSHPDGTDVPFLPGFEGVTNPDAVDYGLTRFDHVVGNVPELAPAAAYIAGFTGFHEFAEFTAEDVGTTESGLNSVVLANNSEGVLLPLNEPVHGTKRRSQIQTFLEHHGGPGVQHIAVASSDVLRTLRKMRARSAMGGFDFLPPPLPKYYEGVRRLAGDVLSEAQIKECQELGVLVDRDDQGVLLQIGTKPVGDRPTLFLEMIQRIGCMEKDERGEEYQKGGCGGFGKGNFSELFKSIEDYEKSLEAKQSAAVQGS
modifications: HvHPPDm-F372G Amino Acid Sequence
Resistance evaluation (topramezone 25 g ai/ha (1x)): Highly resistant
Resistance evaluation (topramezone 100 g ai/ha (4x)): Poorly resistant

B5: F372 deletion (protein, listed as Avena sativa)
chain: MPPTPATATGAAAAAVTPEHAARSFPRVVRVNPRSDRFPVLSFHHVELWCADAASAAGRFSFALGAPLAARSDLSTGNSAHASLLLRSGALAFLFTAPYAPPPQEAATAAATASIPSFSADAARTFAAAHGLAVRSVGVRVADAAEAFRVSVAGGARPAFAPADLGHGFGLAEVELYGDVVLRFVSYPDETDLPFLPGFERVSSPGAVDYGLTRFDHVVGNVPEMAPVIDYMKGFLGFHEFAEFTAEDVGTTESGLNSVVLANNSEAVLLPLNEPVHGTKRRSQIQTYLEYHGGPGVQHIALASNDVLRTLREMRARTPMGGFEFMAPPQAKYYEGVRRIAGDVLSEEQIKECQELGVLVDRDDQGVLLQITKPVGDRPTFFLEMIQRIGCMEKDEVGQEYQKGGCGGFGKGNFSELFKSIEDYEKSLEVKQSVVAQKS
modifications: AsHPPD Amido Acid Sequence
Resistance Grade (topramezone 25 g ai/ha (1x)): Highly resistant
score (topramezone 25 g ai/ha (1x)): 0
Grade 0 (topramezone 25 g ai/ha (1x)): 20
Grade 1 (topramezone 25 g ai/ha (1x)): 0
Grade 2 (topramezone 25 g ai/ha (1x)): 0
Grade 3 (topramezone 25 g ai/ha (1x)): 0
Resistance Grade (topramezone 50 g ai/ha (2x)): Highly resistant
score (topramezone 50 g ai/ha (2x)): 0
Grade 0 (topramezone 50 g ai/ha (2x)): 20
Grade 1 (topramezone 50 g ai/ha (2x)): 0
Grade 2 (topramezone 50 g ai/ha (2x)): 0
Grade 3 (topramezone 50 g ai/ha (2x)): 0
Resistance Grade (topramezone 100 g ai/ha (4x)): Highly resistant
score (topramezone 100 g ai/ha (4x)): 3
Grade 0 (topramezone 100 g ai/ha (4x)): 18
Grade 1 (topramezone 100 g ai/ha (4x)): 2
Grade 2 (topramezone 100 g ai/ha (4x)): 0
Grade 3 (topramezone 100 g ai/ha (4x)): 0

B6: OsHPPDm-F372G: Oryza sativa HPPD mutant F372G, SEQ ID NO: 311 (protein)
chain: MPPTPTPTATTGAVSAAAAAGENAGFRLVGHRRFVRANPRSDRFQALAFHHVELWCADAASAAGRFAFALGAPLAARSDLSTGNSAHASLLLRSASVAFLFTAPYGGDHGVGADAATTASIPSFSPGAARRFAADHGLAVHAVALRVADAADAFRASVAAGARPAFQPADLGGGFGLAEVELYGDVVLRFVSHPDGADAPFLPGFEGVSNPGAVDYGLRRFDHVVGNVPELAPVAAYISGFTGFHEFAEFTAEDVGTAESGLNSVVLANNAETVLLPLNEPVHGTKRRSQIQTYLDHHGGPGVQHIALASDDVLGTLREMRARSAMGGFEFLAPPPPNYYDGVRRRAGDVLSEEQINECQELGVLVDRDDQGVLLQIGTKPVGDRPTFFLEMIQRIGCMEKDESGQEYQKGGCGGFGKGNFSELFKSIEEYEKSLEAKQAPTVQGS
modifications: OsHPPDm-F372G Amino Acid Sequence
Resistance evaluation (topramezone 25 g ai/ha (1x)): Moderately resistant
Resistance evaluation (topramezone 100 g ai/ha (4x)): Non-resistant

Source: patent US20230212587A1, “Mutant Hydroxyphenylpyruvate Dioxygenase Polypeptide, Encoding Gene Thereof and Use Therefor” (Beijing Dabeinong Biotechnology Co., Ltd., priority 2019, published 2023)
